Assay results: publication PMC2115537

Target: F-actin (rabbit skeletal muscle actin filaments) (rabbit) (UniProt P68135)
Assay: co-sedimentation

Kd [nM]	initial Kd (bivalent cooperativity model) [nM]	Substance
1300		40-kD NH2-terminal/middle fragment of synapsin I (domain or fragment)
600		dephosphorylated 51/54-kD middle/tail fragment of synapsin I (domain or fragment)
	168000	29-kD NH2-terminal fragment of synapsin I (domain or fragment)
1700		phosphorylated 51/54-kD middle/tail fragment of synapsin I (domain or fragment)
